Data on seven substances can be found in patent US8557986B2, “Method of producing polysaccharide derivatives” (Seikagaku Corporation, priority 2006, dated 2013).

One data set can be described thus: Test Example 2: passage of 1.0% (w/v) aqueous solution through 0.22 μm porous filter. The format is physicochemical. The settings on record: Millex-GV 0.22 μm pore diameter, room temperature, absorbance before and after filter passage. As for the experimental part:
Each of the aqueous solutions (test solutions) was injected into a rear portion of a syringe (1 mL in volume: manufactured by TERUMO Corporation) equipped with a porous filter (Millex-GV of 0.22 μm pore diameter: manufactured by Millipore Corporation) and was pressed out with a piston at room temperature to pass through the porous filter.
The diclofenac-based absorbance (peak top) at about 280 nm was measured for each of the test solutions before, and after the filter passage of at least 0.5 mL. The filter passage coefficient of each test solution was expressed by a concentration of the diclofenac content in the test solution before and after the filter passage that was calculated from the change in measured absorbance.
“aminoethanol-diclofenac-introduced sodium hyaluronate [Example 1]” registered a filter passage coefficient of 95.3%.

Consider “aminoethanol-diclofenac-introduced sodium hyaluronate [Reference Example 3]”, for which the filter passage coefficient worked out at 96.9%.

The substance “aminoethanol-diclofenac-introduced sodium hyaluronate [Reference Example 4]” returned a filter passage coefficient of 11.0%.

Assay in a further data set: not given
Conditions: not given
How it is done:
The aminoethanol-diclofenac-introduced sodium hyaluronate prepared in Reference Examples 1 and 2 were tested by the same procedure.
As to “aminoethanol-diclofenac-introduced sodium hyaluronate [Example 2]”, the “solubility in distilled water (appearance of the solution)” value (shortened to “solubility in distilled water”) is “homogeneously dissolved in distilled water and yielded clear and viscous aqueous solutions”.

In the case of “aminoethanol-diclofenac-introduced sodium hyaluronate [Example 3]”, the “solubility in distilled water” value was “homogeneously dissolved in distilled water and yielded clear and viscous aqueous solutions”.

“aminoethanol-diclofenac-introduced sodium hyaluronate [Reference Example 1]”: the “solubility in distilled water” value is on record as “not dissolved in distilled water but yielded a white suspension”.

For “aminoethanol-diclofenac-introduced sodium hyaluronate [Reference Example 2]”, the “solubility in distilled water” value is “homogeneously dissolved in distilled water and yielded clear and viscous aqueous solutions”.
